The target in experiment [1] is T1, Recombinant Cox11, purified (mouse) (UniProt Q6P8I6).
T1 sequence (Q6P8I6 whole entry, looked up): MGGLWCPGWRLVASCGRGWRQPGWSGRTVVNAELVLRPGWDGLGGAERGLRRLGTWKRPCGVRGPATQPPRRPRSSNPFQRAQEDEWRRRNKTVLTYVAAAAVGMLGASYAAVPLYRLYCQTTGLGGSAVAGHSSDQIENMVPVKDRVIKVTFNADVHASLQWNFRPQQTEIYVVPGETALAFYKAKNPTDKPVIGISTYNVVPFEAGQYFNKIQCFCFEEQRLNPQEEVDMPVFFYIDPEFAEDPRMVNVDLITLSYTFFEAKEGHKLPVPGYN

In experiment [2] the target is Hexokinase type I (HKI) (UniProt P17710).
UniProt P17710, sequence (P17710 other isoform, or with tags, fused parts or gaps): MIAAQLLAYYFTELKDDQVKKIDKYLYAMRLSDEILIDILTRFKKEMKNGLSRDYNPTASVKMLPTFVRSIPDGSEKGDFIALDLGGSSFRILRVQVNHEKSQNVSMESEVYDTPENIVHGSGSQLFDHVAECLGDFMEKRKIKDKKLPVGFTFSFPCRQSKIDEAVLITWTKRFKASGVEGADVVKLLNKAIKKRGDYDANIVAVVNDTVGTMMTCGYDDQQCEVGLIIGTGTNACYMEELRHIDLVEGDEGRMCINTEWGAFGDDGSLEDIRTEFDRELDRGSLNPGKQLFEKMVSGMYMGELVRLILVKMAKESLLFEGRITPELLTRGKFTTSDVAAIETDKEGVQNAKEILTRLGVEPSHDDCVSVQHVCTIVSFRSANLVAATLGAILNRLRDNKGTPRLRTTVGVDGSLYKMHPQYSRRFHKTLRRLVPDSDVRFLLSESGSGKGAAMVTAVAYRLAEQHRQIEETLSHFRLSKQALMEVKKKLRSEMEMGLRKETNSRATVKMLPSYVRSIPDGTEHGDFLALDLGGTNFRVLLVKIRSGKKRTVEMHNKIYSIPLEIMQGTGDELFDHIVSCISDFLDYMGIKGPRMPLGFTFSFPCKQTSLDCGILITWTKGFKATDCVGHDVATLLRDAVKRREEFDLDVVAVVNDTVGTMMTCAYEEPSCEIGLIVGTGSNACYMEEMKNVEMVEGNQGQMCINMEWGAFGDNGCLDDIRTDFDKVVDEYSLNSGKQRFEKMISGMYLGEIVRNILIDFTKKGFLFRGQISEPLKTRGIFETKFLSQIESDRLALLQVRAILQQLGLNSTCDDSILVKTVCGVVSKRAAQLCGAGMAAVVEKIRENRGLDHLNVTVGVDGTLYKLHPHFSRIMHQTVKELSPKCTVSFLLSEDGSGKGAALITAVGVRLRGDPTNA

On to “GST-LD, leucine-rich domain of RanBP2 fused to glutathione S-transferase (from UniProt P49792 62-711) (domain or fragment)”, for which, in experiment [1], the reversal by increasing LD of the inhibition of HKI activity by 7.5 nM Cox11 at saturating glucose; half-maximal effect turned out to be 0.05 nM.
As for “Recombinant Cox11, purified (from UniProt Q6P8I6 75-275) (natural protein)”, the HKI enzymatic activity (initial rates versus glucose, 0.24 ug HKI) with 0.25, 7.5 and 15 nM Cox11; concentration of Cox11 at which no activity was recorded in experiment [2] stood at 15 nM.

Values taken from PMC1626108.
